The results in this text go back to patent publication US20220242939A1.

Non-standard residues stand in square brackets, D forms with d. No end group written: not given here. Ahx = NCCCCCC(=O)O

The target in assay [1] is 4E6, recombinant IgG2c antibody. Kind of assay: inhibition ELISA: antigen in solution varied, antibody 4E6 at 0.05 µg/ml, plate coated with G200-BSA peptide. Background: ELISA stands for enzyme-linked immunosorbent assay.
Assay [2] shares this target. In words: inhibition ELISA 2nd protocol: antigen in solution varied, antibody 4E6, plate coated with G200-BSA peptide.

Sequence of 4E6, recombinant IgG2c antibody (VH, as listed by the source limits assumed, chain 1 of 2): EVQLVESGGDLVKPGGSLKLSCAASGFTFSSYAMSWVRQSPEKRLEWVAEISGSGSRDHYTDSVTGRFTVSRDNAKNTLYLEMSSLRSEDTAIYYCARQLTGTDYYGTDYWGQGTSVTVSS
Sequence of 4E6, recombinant IgG2c antibody (VL, as listed by the source limits assumed, chain 2 of 2): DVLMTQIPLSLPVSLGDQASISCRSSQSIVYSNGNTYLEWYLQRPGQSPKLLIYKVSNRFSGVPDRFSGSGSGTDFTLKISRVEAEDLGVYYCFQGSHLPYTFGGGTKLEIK

B1: G200 N-terminal neo-epitope peptide GQPLQE-Acp-C (SEQ ID NO:50) conjugated to BSA (peptide)
peptide: GQPLQE[Ahx]C
modifications: not fully specified (residue 8); printed as GQPLQE-Acp-C; also: C-terminal Cys conjugated to BSA carrier
One may read the IC50 as the concentration that inhibits the measured activity by half. Regarding B1, the half-inhibitory concentration (IC50) in assay [1] was determined as 2.9 ng/mL; in assay [2], 11.5 ng/mL.
